Results as given in PMC5570060 (Nucleic Acids Research, 2017).
Residue numbers refer to the chain shown, from its start. Numbers in names are those of the source. Where two headings read alike, the source gives them in different places.

T1: Brr2^C-Sec63 (human, UniProt O75643 1840-2136)
T1 sequence (looked up): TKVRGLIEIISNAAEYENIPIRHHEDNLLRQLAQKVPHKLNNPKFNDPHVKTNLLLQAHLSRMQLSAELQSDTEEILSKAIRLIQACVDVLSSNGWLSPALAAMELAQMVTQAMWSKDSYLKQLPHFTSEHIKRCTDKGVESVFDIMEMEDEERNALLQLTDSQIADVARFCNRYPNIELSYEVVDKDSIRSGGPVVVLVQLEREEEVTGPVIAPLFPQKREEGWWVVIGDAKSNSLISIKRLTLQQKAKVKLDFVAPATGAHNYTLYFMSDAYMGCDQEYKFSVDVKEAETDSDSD

T2: Brr2^C-Sec63 pre-incubated with FBP21^116–376 (human | , UniProt O75643 1840-2136; O75554 116-376)
T2 sequence (looked up) 1: T1 sequence (looked up)
T2 sequence (looked up) 2: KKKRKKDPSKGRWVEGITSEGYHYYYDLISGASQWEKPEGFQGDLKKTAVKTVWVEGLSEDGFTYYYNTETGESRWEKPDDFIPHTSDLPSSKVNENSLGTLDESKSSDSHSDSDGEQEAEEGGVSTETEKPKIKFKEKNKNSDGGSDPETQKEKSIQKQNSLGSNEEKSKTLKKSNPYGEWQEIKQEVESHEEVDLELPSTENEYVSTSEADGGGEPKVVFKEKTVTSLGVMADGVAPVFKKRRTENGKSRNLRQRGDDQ

B1: FBP21^116–376 (domain or fragment, UniProt O75554 116-376, looked up)
chain: T2 sequence (looked up) 2
B2: FBP21^116–376 pre-incubated with SmB peptide (complex)
chain: T2 sequence (looked up) 2
peptide: GTPMGMPPPGMRPPPPGMRGLL
B3: FBP21^276–376 (domain or fragment, UniProt O75554 276-376, looked up)
chain: NSLGSNEEKSKTLKKSNPYGEWQEIKQEVESHEEVDLELPSTENEYVSTSEADGGGEPKVVFKEKTVTSLGVMADGVAPVFKKRRTENGKSRNLRQRGDDQ
B4: SmB-derived peptide (peptide)
peptide: GTPMGMPPPGMRPPPPGMRGLL
B5: FBP21^200–376 (domain or fragment, UniProt O75554 200-376, looked up)
chain: HTSDLPSSKVNENSLGTLDESKSSDSHSDSDGEQEAEEGGVSTETEKPKIKFKEKNKNSDGGSDPETQKEKSIQKQNSLGSNEEKSKTLKKSNPYGEWQEIKQEVESHEEVDLELPSTENEYVSTSEADGGGEPKVVFKEKTVTSLGVMADGVAPVFKKRRTENGKSRNLRQRGDDQ
B6: FBP21^200–376 K357E/R359E (domain or fragment, UniProt O75554 200-376, looked up)
chain: B5 chain with K158E, R160E
B7: FBP21^200–376 K358A/R360A (domain or fragment, UniProt O75554 200-376, looked up)
chain: B5 chain with K159A, R161A
B8: FBP21^326–376 (domain or fragment, UniProt O75554 326-376, looked up)
chain: EADGGGEPKVVFKEKTVTSLGVMADGVAPVFKKRRTENGKSRNLRQRGDDQ
B9: positively charged control peptide KRFKR (peptide)
peptide: KRFKR
B10: peptide 57 (peptide)
peptide: GVMADGVAPVFKKRRTENGK
B11: core binding motif of peptide 57, ^356FKKRR^360 (peptide)
peptide: FKKRR
B12: positively charged control peptide GKKRR (peptide)
peptide: GKKRR
B13: peptide 58 (peptide)
peptide: GVAPVFKKRRTENGKSRNLR

How the values were obtained:
Assay in all cases: ITC
Brr2^C-Sec63 [1] = target: T1, Brr2^C-Sec63
Brr2^C-Sec63 [2] = target: T1, Brr2^C-Sec63; remark: listed apart in the source
FBP21^116–376 = target: B1
[3] = target: T2, Brr2^C-Sec63 pre-incubated with …
Brr2^C-Sec63 [4] = target: T1, Brr2^C-Sec63; remark: listed apart in the source

Kd (Brr2^C-Sec63 [1]) | Binder | also measured
0.275 ± 0.106 µM | B1 | 
 | B2 | Kd (Brr2^C-Sec63 [2]): 0.194 ± 0.014 µM
0.298 µM | B3 | stoichiometry N (Brr2^C-Sec63 [1]): 1
 | B4 | Kd (FBP21^116–376): 16.8 ± 3 µM; Kd [3]: 14 ± 0.8 µM
0.125 µM | B5 | stoichiometry N (Brr2^C-Sec63 [1]): 1
27.8 ± 0.9 µM | B6 | 
2.04 ± 0.37 µM | B7 | 
0.11 µM | B8 | 
27.3 ± 3.01 µM | B9 | 
27.5 µM | B10 | stoichiometry N (Brr2^C-Sec63 [1]): 1
20 ± 1.1 µM | B11 | 
37 ± 5.99 µM | B12 | 
 | B13 | Kd (Brr2^C-Sec63 [4]): 1.34 ± 0.19 µM
